Data as given in US20240117018A1.

Key:
Test in all cases: cell-based or functional assay
[1] = target: HIV-1 Env of pseudovirus 3103.v3.c10 (HIV-1)
[2] = target: HIV-1 Env of pseudovirus 3301.v1.c24 (HIV-1)
[3] = target: HIV-1 Env of pseudovirus 620345.c01 (HIV-1)
[4] = target: HIV-1 Env of pseudovirus 6480.v4.c25 (HIV-1)
[5] = target: HIV-1 Env of pseudovirus C2101.c01 (HIV-1)
[6] = target: HIV-1 Env of pseudovirus C4118.c09 (HIV-1)
[7] = target: HIV-1 Env of pseudovirus P1981_C5_3 (HIV-1)
[8] = target: HIV-1 Env of pseudovirus T251-18 (HIV-1)
[9] = target: HIV-1 Env of pseudovirus 191084 B7-19 (HIV-1)
[10] = target: HIV-1 Env of pseudovirus 3365.v2.c2 (HIV-1)
[11] = target: HIV-1 Env of pseudovirus 928-28 (HIV-1)
[12] = target: HIV-1 Env of pseudovirus T250-4 (HIV-1)

With 10E8 (antibody) the IC50 neutralization (TZM.bl) [1] was greater than 10 mg/L, the IC80 neutralization (TZM.bl) [1] was greater than 10 mg/L and the IC50 neutralization (TZM.bl) [2] was 4.63 mg/L. The IC80 neutralization (TZM.bl) [2] was greater than 10 mg/L, the IC50 neutralization (TZM.bl) [3] was 0.455 mg/L and the IC80 neutralization (TZM.bl) [3] was 6 mg/L. It also gave an IC50 neutralization (TZM.bl) [4] of 8.08 mg/L, an IC80 neutralization (TZM.bl) [4] greater than 10 mg/L and an IC50 neutralization (TZM.bl) [5] of 1.92 mg/L. For the same substance, the IC80 neutralization (TZM.bl) [5] was 8.26 mg/L, the IC50 neutralization (TZM.bl) [6] was 1.62 mg/L and the IC80 neutralization (TZM.bl) [6] was 9.06 mg/L. For the same substance, the IC50 neutralization (TZM.bl) [7] was 0.057 mg/L, the IC80 neutralization (TZM.bl) [7] was 0.285 mg/L and the IC50 neutralization (TZM.bl) [8] was 2.36 mg/L. It also gave an IC80 neutralization (TZM.bl) [8] greater than 10 mg/L.

Substance N49P9.1 (antibody) has a neutralization IC50 [9] of 0.097 mg/L, a neutralization IC80 [9] of 0.259 mg/L and a neutralization MPI [9] of 100. For the same substance, the neutralization IC50 [1] was greater than 50 mg/L, the neutralization IC80 [1] was greater than 50 mg/L and the neutralization MPI [1] was 45. The neutralization IC50 [2] was 0.059 mg/L, the neutralization IC80 [2] was 0.178 mg/L and the neutralization MPI [2] was 100. For the same substance, the neutralization IC50 [10] was 0.055 mg/L, the neutralization IC80 [10] was 0.725 mg/L and the neutralization MPI [10] was 100. It also gave a neutralization IC50 [3] greater than 50 mg/L, a neutralization IC80 [3] greater than 50 mg/L and a neutralization MPI [3] of 7. It also gave a neutralization IC50 [4] of 0.03 mg/L, a neutralization IC80 [4] of 0.082 mg/L and a neutralization MPI [4] of 100. The neutralization IC50 [11] was 0.163 mg/L, the neutralization IC80 [11] was 0.695 mg/L and the neutralization MPI [11] was 100. It also gave a neutralization IC50 [5] of 0.085 mg/L, a neutralization IC80 [5] of 0.227 mg/L and a neutralization MPI [5] of 100. It also gave a neutralization IC50 [6] of 0.062 mg/L, a neutralization IC80 [6] of 0.218 mg/L and a neutralization MPI [6] of 100. It also gave a neutralization IC50 [7] of 0.469 mg/L, a neutralization IC80 [7] of 1.52 mg/L and a neutralization MPI [7] of 100. It also gave a neutralization IC50 [12] greater than 50 mg/L, a neutralization IC80 [12] greater than 50 mg/L and a neutralization MPI [12] of 7. It also gave a neutralization IC50 [8] of 0.127 mg/L, a neutralization IC80 [8] of 0.352 mg/L and a neutralization MPI [8] of 100.

10-1074 (antibody) was tested, and the IC50 neutralization (TZM.bl) [1] was 0.037 mg/L, the IC80 neutralization (TZM.bl) [1] was 0.101 mg/L and the IC50 neutralization (TZM.bl) [2] was 0.013 mg/L. The IC80 neutralization (TZM.bl) [2] was 0.042 mg/L, the IC50 neutralization (TZM.bl) [3] was greater than 50 mg/L and the IC80 neutralization (TZM.bl) [3] was greater than 50 mg/L. For the same substance, the IC50 neutralization (TZM.bl) [4] was 0.009 mg/L, the IC80 neutralization (TZM.bl) [4] was 0.041 mg/L and the IC50 neutralization (TZM.bl) [5] was greater than 50 mg/L. For the same substance, the IC80 neutralization (TZM.bl) [5] was greater than 50 mg/L, the IC50 neutralization (TZM.bl) [6] was greater than 50 mg/L and the IC80 neutralization (TZM.bl) [6] was greater than 50 mg/L. The IC50 neutralization (TZM.bl) [7] was 0.005 mg/L, the IC80 neutralization (TZM.bl) [7] was 0.017 mg/L and the IC50 neutralization (TZM.bl) [8] was 1.08 mg/L. For the same substance, the IC80 neutralization (TZM.bl) [8] was 7.39 mg/L.

PG16 (antibody) gave an IC50 neutralization (TZM.bl) [1] of 25.4 mg/L, an IC80 neutralization (TZM.bl) [1] greater than 50 mg/L and an IC50 neutralization (TZM.bl) [2] of 0.02 mg/L. It also gave an IC80 neutralization (TZM.bl) [2] of 0.087 mg/L, an IC50 neutralization (TZM.bl) [3] greater than 50 mg/L and an IC80 neutralization (TZM.bl) [3] greater than 50 mg/L. It also gave an IC50 neutralization (TZM.bl) [4] greater than 50 mg/L, an IC80 neutralization (TZM.bl) [4] greater than 50 mg/L and an IC50 neutralization (TZM.bl) [5] of 0.012 mg/L. For the same substance, the IC80 neutralization (TZM.bl) [5] was 0.238 mg/L, the IC50 neutralization (TZM.bl) [6] was 0.022 mg/L and the IC80 neutralization (TZM.bl) [6] was 0.143 mg/L. It also gave an IC50 neutralization (TZM.bl) [7] of 0.376 mg/L, an IC80 neutralization (TZM.bl) [7] greater than 50 mg/L and an IC50 neutralization (TZM.bl) [8] of 1.72 mg/L. The IC80 neutralization (TZM.bl) [8] was 44.7 mg/L.

For PG9 (antibody), the IC50 neutralization (TZM.bl) [1] was 28 mg/L, the IC80 neutralization (TZM.bl) [1] was greater than 50 mg/L and the IC50 neutralization (TZM.bl) [2] was 0.216 mg/L. It also gave an IC80 neutralization (TZM.bl) [2] of 0.756 mg/L, an IC50 neutralization (TZM.bl) [3] of 1.33 mg/L and an IC80 neutralization (TZM.bl) [3] greater than 50 mg/L. The IC50 neutralization (TZM.bl) [4] was greater than 50 mg/L, the IC80 neutralization (TZM.bl) [4] was greater than 50 mg/L and the IC50 neutralization (TZM.bl) [5] was 0.034 mg/L. It also gave an IC80 neutralization (TZM.bl) [5] of 0.099 mg/L, an IC50 neutralization (TZM.bl) [6] of 0.068 mg/L and an IC80 neutralization (TZM.bl) [6] of 0.2 mg/L. For the same substance, the IC50 neutralization (TZM.bl) [7] was 0.258 mg/L, the IC80 neutralization (TZM.bl) [7] was 2.51 mg/L and the IC50 neutralization (TZM.bl) [8] was greater than 50 mg/L. The IC80 neutralization (TZM.bl) [8] was greater than 50 mg/L.
